Test results: article PMC10192418, “High-affinity peptides developed against calprotectin and their application as synthetic ligands in diagnostic assays” (Nature Communications, 2023)
Where “and” joins values, the source holds several entries; their conditions need not be identical. Equal entries are not always repeated. Ends that are not written are not given here. 5(6)‑carboxyfluorescein = 5(6)-carboxyfluorescein on the N-terminus

B2: B-RCAL (BÜHLMANN recombinant calprotectin; His6-linker-S100A9-linker-S100A8) (complex, human)
chain: MTCKMSQLERNIETIINTFHQYSVKLGHPDTLNQGEFKELVRKDLQNFLKKENKNEKVIEHIMEDLDTNADKQLSFEEFIMLMARLTWASHEKMHEGDEGPGHHHKPGLGEGTPLEVLFQGPMLTELEKALNSIIDVYHKYSLIKGNFHAVYRDDLKKLLETECPQYIRKKGADVWFKELDINTDGAVNFQEFLILVIKMGVAAHKKSHEESHKE
notes: S100A9 (Mrp-14), human; cleavable linker, HRV 3C protease recognition site (LEVLFQ/GP); not cleaved in this molecule; S100A8 (Mrp-8), human; With calcium two fusion chains form the calprotectin tetramer; without calcium (EDTA) a single fusion chain is the 'dimer' (S100A8/S100A9); also called heterodimeric fusion protein; source: provided by BÜHLMANN Laboratories AG

Columns and labels:
[1] = biological target: T1, recombinant calprotectin B-RCAL lacking the His6-tag and with the heterodimer linker cleaved by 3C protease, … (human, cysteines replaced by serines | cysteines replaced by serines); test: crystal structure; co-crystallisation of cleaved cysteine-free calprotectin (440 μM) with 14-fold excess of linear peptide 3 and 1 mM CaCl2; sitting drop, 18 °C; 0.1 M MIB pH 6.0, 25% PEG 1500; conditions: both partners purified
T1 construct: rest of the first HRV 3C site after cleavage (LEVLFQ/GP), worked out from the indicated cleavage site; S100A9, human; rest of the second HRV 3C site left on S100A9 after cleavage, worked out from the indicated cleavage site; rest of the second HRV 3C site after cleavage, worked out from the indicated cleavage site; S100A8, human; One heterodimer and one peptide in the asymmetric unit; the …
T1 chain 1: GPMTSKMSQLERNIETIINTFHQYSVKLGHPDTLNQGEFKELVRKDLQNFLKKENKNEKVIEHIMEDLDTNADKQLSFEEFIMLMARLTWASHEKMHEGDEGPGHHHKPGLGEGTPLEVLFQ
T1 chain 2: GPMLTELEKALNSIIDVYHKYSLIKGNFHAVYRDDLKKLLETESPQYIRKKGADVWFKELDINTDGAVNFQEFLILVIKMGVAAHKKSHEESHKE

[2] = biological target: B2; test: fluorescence polarisation; calprotectin serially diluted, fluorescent peptide at 20 nM; 20 mM HEPES, 100 mM NaCl, 2 mM CaCl2, pH 7.5, 1 mM DTT, 0.01% Tween-20; tetrameric calprotectin; Kd calculated on the concentration of the heterodimer (1:1 heterodimer:peptide); conditions: both partners purified
[3] = biological target: T2, native calprotectin derived from granulocytes (human, UniProt P05109 1-93; P06702 1-114); test: as above; conditions: both partners purified
T2 construct: S100A8 (Mrp-8), human, native; S100A9 (Mrp-14), human, native; Tetramer with calcium, dimer with 1 mM EDTA; also called S100A8/S100A9; Mrp-8/Mrp-14; source: also native in human serum samples; copies: 2 + 2
T2 sequence (looked up) 1: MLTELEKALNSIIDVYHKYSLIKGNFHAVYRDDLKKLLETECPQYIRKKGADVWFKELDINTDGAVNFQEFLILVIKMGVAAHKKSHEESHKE
T2 sequence (looked up) 2: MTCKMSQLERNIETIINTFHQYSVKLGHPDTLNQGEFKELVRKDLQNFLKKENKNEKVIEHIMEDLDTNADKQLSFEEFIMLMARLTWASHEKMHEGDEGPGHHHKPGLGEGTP

[4] = biological target: the molecule itself; test: dynamic light scattering + other: mass photometry; B-RCAL in 20 mM HEPES, 100 mM NaCl, pH 7.5 with 2 mM CaCl2, 1 h at room temperature; tetramer = two B-RCAL fusion chains

B1: linear peptide 3 (peptide)
peptide: {5(6)‑carboxyfluorescein}-RSPESVAFPMFQSHWYSG
notes: phage-selected peptide 3 with its four cysteines replaced by serines; Synthesised on rink amide AM resin, so a C-terminal amide is likely (surmised); also called peptide 3 (linear; all four cysteines replaced with serines); source: synthetic peptide (Fmoc solid-phase synthesis, HPLC purified)
binding result [1]: binds
Kd [2]: 26 nM and 20 nM
Kd [3]: 26 nM

B2
binding result [4]: binds
